Data: patent publication US20070225207A1 (NOVOZYMES A S, published 2007)

Molecular target: IgE of dust mite allergic patient Donor 11 (serum IgE; IgE on the donor's basophils in the histamine release …)
Assay: cell-based or functional assay

- potency to induce histamine release in human basophil assay, relative to nDer p 1: 20 fold
B1: Der p 1 variant DP060 (S54N, Q68F) (other)
chain: TNACSINGNAPAEIDLRQMRTVTPIRMQGGCGSCWAFSGVAATESAYLAYRNQNLDLAEQELVDCASFHGCHGDTIPRGIEYIQHNGVVQESYYRYVAREQSCRRPNAQRFGISNYCQIYPPNVNKIREALAQTHSAIAVIIGIKDLDAFRHYDGRTIIQRDNGYQPNYHAVNIVGYSNAQGVDYWIVRNSWDTNWGDNGYGYFAANIDLMMIEEYPYVVIL
